Legend:
human TNF-α (human) [1] = biological target: human TNF-α (human) (UniProt P01375)
human TNF-α (human) [2] = biological target: human TNF-α (human) (UniProt P01375); assay: cell-based or functional assay

human TNF-α (human), sequence (P01375 77-233 limits assumed): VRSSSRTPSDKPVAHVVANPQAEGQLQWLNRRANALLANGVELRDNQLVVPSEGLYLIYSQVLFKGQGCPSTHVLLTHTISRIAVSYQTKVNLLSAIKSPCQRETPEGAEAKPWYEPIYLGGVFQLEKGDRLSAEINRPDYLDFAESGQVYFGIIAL

Work on Humira (IgG1) (antibody) yielded an ND50 (L929 cell survival, neutralisation of TNF-α cytotoxicity) (human TNF-α (human) [1]) of 28 pM and an Average IC50, neutralization of TNF-α cytotoxicity on L929 cells (human TNF-α (human) [2]) of 0.023 nM.
